Reference: US20190135872A1

Key:
[1] = target: 16055 NFL-TD+CC2-D4K_I559P (HIV-1 16055 (clade C)); assay: ELISA, His-captured trimer
[2] = target: 16055 NFL-Q563P (HIV-1 16055 (clade C)); assay: ELISA, His-captured trimer
[3] = target: BG505 NFL-TD+CC2-D4K_I559P w/rEK (HIV-1 BG505 (clade A)); assay: ELISA, His-captured trimer
[4] = target: BG505 NFL-TD+CC2-D4K_L555P (HIV-1 BG505 (clade A)); assay: ELISA, His-captured trimer
[5] = target: BG505 NFL-TD+CC2-D4K_L555P w/rEK (HIV-1 BG505 (clade A)); assay: ELISA, His-captured trimer
[6] = target: JRFL NFL-CC2 (HIV-1 JRFL (clade B)); assay: ELISA, His-captured trimer
[7] = target: 16055 NFL-TD+CC2-D4K_L555P w/rEK (HIV-1 16055 (clade C)); assay: ELISA, His-captured trimer
[8] = target: 16055 NFL-L555P (HIV-1 16055 (clade C)); assay: ELISA, His-captured trimer
[9] = target: BG505 NFL-TD+CC2-D4K_I559P (HIV-1 BG505 (clade A)); assay: ELISA, His-captured trimer
[10] = target: 16055 NFL-TD+CC2-D4K_L555P (HIV-1 16055 (clade C)); assay: ELISA, His-captured trimer
[11] = target: 16055 NFL-TD+CC2-D4K_I559P w/rEK (HIV-1 16055 (clade C)); assay: ELISA, His-captured trimer
[12] = target: BG505 NFL-L555P (HIV-1 BG505 (clade A)); assay: ELISA, His-captured trimer
[13] = target: 16055 NFL (I559P) parental (HIV-1 16055 (clade C)); assay: ELISA, His-captured trimer
[14] = target: 16055 NFL-CC2 (HIV-1 16055 (clade C)); assay: ELISA, His-captured trimer
[15] = target: BG505 NFL-CC2 (HIV-1 BG505 (clade A)); assay: ELISA, His-captured trimer
[16] = target: BG505 NFL (I559P) parental (HIV-1 BG505 (clade A)); assay: ELISA, His-captured trimer
[17] = target: 16055 NFL-TD+CC2-D4K_I559P (HIV-1 16055 (clade C)); assay: BLI, IgG captured, trimer as analyte
[18] = target: 16055 NFL-Q563P (HIV-1 16055 (clade C)); assay: BLI, IgG captured, trimer as analyte
[19] = target: BG505 NFL-TD+CC2-D4K_L555P (HIV-1 BG505 (clade A)); assay: BLI, IgG captured, trimer as analyte
[20] = target: BG505 NFL-S553P (HIV-1 BG505 (clade A)); assay: BLI, IgG captured, trimer as analyte
[21] = target: 16055 NFL-L555P (HIV-1 16055 (clade C)); assay: BLI, IgG captured, trimer as analyte
[22] = target: 16055 NFL-Q562P (HIV-1 16055 (clade C)); assay: BLI, IgG captured, trimer as analyte
[23] = target: BG505 NFL-Q562P (HIV-1 BG505 (clade A)); assay: BLI, IgG captured, trimer as analyte
[24] = target: BG505 NFL-TD+CC2-D4K_I559P (HIV-1 BG505 (clade A)); assay: BLI, IgG captured, trimer as analyte
[25] = target: 16055 NFL-TD+CC2-D4K_L555P (HIV-1 16055 (clade C)); assay: BLI, IgG captured, trimer as analyte
[26] = target: BG505 NFL-N554P (HIV-1 BG505 (clade A)); assay: BLI, IgG captured, trimer as analyte
[27] = target: BG505 NFL-L555P (HIV-1 BG505 (clade A)); assay: BLI, IgG captured, trimer as analyte
[28] = target: 16055 NFL-CC2 (HIV-1 16055 (clade C)); assay: BLI, IgG captured, trimer as analyte
[29] = target: BG505 NFL-CC2 (HIV-1 BG505 (clade A)); assay: BLI, IgG captured, trimer as analyte
[30] = target: BG505 NFL-Q563P (HIV-1 BG505 (clade A)); assay: BLI, IgG captured, trimer as analyte
[31] = target: BG505 NFL (I559P) parental (HIV-1 BG505 (clade A)); assay: BLI, IgG captured, trimer as analyte

2G12 (antibody) gave an EC50 [1] of 0.043 µg/mL, an EC50 [2] of 0.066 µg/mL and an EC50 [3] of 0.031 µg/mL. It also gave an EC50 [4] of 0.027 µg/mL, an EC50 [5] of 0.021 µg/mL and an EC50 [6] of 0.022 µg/mL. For the same substance, the EC50 [7] was 0.11 µg/mL, the EC50 [8] was 0.051 µg/mL and the EC50 [9] was 0.024 µg/mL. For the same substance, the EC50 [10] was 0.038 µg/mL, the EC50 [11] was 0.105 µg/mL and the EC50 [12] was 0.022 µg/mL. It also gave an EC50 [13] of 2.34 µg/mL, an EC50 [14] of 0.056 µg/mL and an EC50 [15] of 0.025 µg/mL. The EC50 [16] was 0.029 µg/mL.
PG16 (antibody) showed a Kd [17] of 23 nM, a koff [17] of 0.001 s⁻¹ and a kon [17] of 43000 M⁻¹ s⁻¹. The Kd [18] was 1.7 nM, the koff [18] was 0.0003 s⁻¹ and the kon [18] was 190000 M⁻¹ s⁻¹. It also gave a Kd [19] of 70 nM, a koff [19] of 0.0057 s⁻¹ and a kon [19] of 81000 M⁻¹ s⁻¹. It also gave a Kd [20] of 7.2 nM, a Kd [21] of 6.9 nM and a koff [21] of 0.0009 s⁻¹. For the same substance, the kon [21] was 130000 M⁻¹ s⁻¹, the Kd [22] was 2.8 nM and the koff [22] was 0.0005 s⁻¹. It also gave a kon [22] of 170000 M⁻¹ s⁻¹, a Kd [23] of 15 nM and a Kd [24] of 59 nM. For the same substance, the koff [24] was 0.0048 s⁻¹, the kon [24] was 81000 M⁻¹ s⁻¹ and the Kd [25] was 16 nM. For the same substance, the koff [25] was 0.0007 s⁻¹, the kon [25] was 43000 M⁻¹ s⁻¹ and the Kd [26] was 14 nM. It also gave a Kd [27] of 7.8 nM, a Kd [28] of 15 nM and a koff [28] of 0.0009 s⁻¹. The kon [28] was 61000 M⁻¹ s⁻¹, the Kd [29] was 43 nM and the koff [29] was 0.0033 s⁻¹. The kon [29] was 78000 M⁻¹ s⁻¹, the Kd [30] was 12 nM and the Kd [31] was 15 nM. The EC50 [1] was 0.123 µg/mL, the EC50 [2] was 0.102 µg/mL and the EC50 [3] was 0.336 µg/mL. The EC50 [4] was 0.215 µg/mL, the EC50 [5] was 0.307 µg/mL and the EC50 [6] was 0.216 µg/mL. The EC50 [7] was 0.122 µg/mL, the EC50 [8] was 0.121 µg/mL and the EC50 [9] was 0.206 µg/mL. The EC50 [10] was 0.115 µg/mL, the EC50 [11] was 0.19 µg/mL and the EC50 [12] was 0.101 µg/mL. For the same substance, the EC50 [14] was 0.089 µg/mL, the EC50 [15] was 0.143 µg/mL and the EC50 [16] was 0.144 µg/mL.
